Measured values: patent US12364743B2, “Microbiota sequence variants of tumor-related antigenic epitopes” (ENTEROME S.A., priority 2016, dated 2025)

Key:
[1] = system: renal cell carcinoma (RCC); settings: patients; cited from earlier work
NSCLC = settings: patients; cited from earlier work
HLA-A*0201 = target: T1, HLA-A*0201 (Homo sapiens, UniProt P04439, D140Y/D185E/D98H/E176V/E277Q/G131W/G231S/I119V/I121R/I166T/I218V/L300P/L318F/N151K/N90K/P208A/P217A/Q86G/Q94H/R138H/R169H/T345S); experiment: Affinity of peptides to HLA-A*0201 on T2 cells (FACS, anti-HLA-A2); type: binding; settings: for concentration inducing 20% of expression of the HLA-A*0201: 100% = reference peptide HIV pol 589-597 at 100 μM; for Mean fluorescence intensity: 16 hours; for binding affinity to HLA-A*0201 compared among peptides: Example 5
T1 construct: the human tumoral cell T2 which expresses the HLA-A*0201 molecule, but which is TAP 1/2 negative; endogenous in cells; host or cells: T2 cells (human, TAP 1/2 negative)
Source text: The experimental protocol is similar to the one that was validated for peptides presented by the HLA-A*0201 (Tourdot et al., A general strategy to enhance immunogenicity of low-affinity HLA-A2.1-associated peptides: implication in the identification of cryptic tumor epitopes. Eur J Immunol. 2000 December; […]:3411-21). Affinity measurement of the peptides is achieved with the human tumoral cell T2 which expresses the HLA-A*0201 molecule, but which is TAP 1/2 negative and incapable of presenting endogenous peptides.
T2 cells (2.10^5 cells per well) were incubated with decreasing concentrations of peptides from 100 μM to 0.1 μM in a AIMV medium supplemented with 100 ng/μl of human β2m at 37° C. for 16 hours. Cells were then washed two times and marked with the anti-HLA-A2 antibody coupled to PE (clone BB7.2, BD Pharmagen).
The analysis was performed by FACS (Guava Easy Cyte). […] A2. Solubilisation of Peptides
The experimental protocol, materials and methods correspond to those outlined in Example 4, with the only difference that the above mentioned antigenic peptides were used.

β/A2/DR3 mice = experiment: ELISPOT-IFNγ on splenocytes of vaccinated mice; type: in vivo, mouse; settings: for percentage of ConA-induced response (mean+/−SEM): ELISPOT-IFNγ, vaccination 100 μg s.c. d0 and d14, spleen d21
Source text: Briefly, 14 β/A2/DR3 mice were assigned randomly (based on mouse sex and age) to two experimental groups, each immunized with a specific vaccination peptide (vacc-pAg) combined to a common helper peptide (h-pAg) (as outlined in Table 7 below). The vacc-pAg were compared in couples (group 1 vs. group 2). Thereby, both native and optimized versions of a single peptide were compared in each wave.
The animals were immunized on day o (do) with a prime injection, and on d14 with a boost injection. Each mouse was injected s.c. at tail base with 100 μL of an oil-based emulsion that contained: • 100 μg of vacc-pAg (25 μL of 4 mg/mL stock per mouse); • 150 μg of h-pAg (15 μL of 10 mg/mL stock per mouse); • 10 μL of PBS to reach a total volume of 50 μL (per mouse); • Incomplete Freund's Adjuvant (IFA) added at 1:1 (v:v) ratio (50 μL per mouse).
Seven days after the boost injection (i.e. on d21), the animals were euthanized and the spleen was harvested. Splenocytes were prepared by mechanical disruption of the organ followed by 70 μm-filtering and Ficoll density gradient purification.
The splenocytes were immediately used in an ELISPOT-IFNγ assay (Table 8). Experimental conditions were repeated in quadruplets, using 2*10^5 total splenocytes per well, and were cultured in presence of vacc-pAg (10 μM), Concanavalin A (ConA, 2.5 μg/mL) or medium-only to assess for their capacity to secrete IFNγ. The commercial ELISPOT-IFNγ kit (Diaclone Kit Mujrine IFNγ ELISpot) was used following the manufacturer's instructions, and the assay was performed after about 16 h of incubation.
Spots were counted on a Grand ImmunoSpot® S6 Ultimate UV Image Analyzer interfaced to the ImmunoSpot 5.4 software (CTL-Europe). Data plotting and statistical analysis were performed with the Prism-5 software (GraphPad Software Inc.).
The data were then normalized as a number of specific spots (the average counts obtained in the ‘medium only’ condition being subtracted) per 10^6 total T cells.
The individual average values (obtained from the quadruplicates) were next used to plot the group average values (see FIG. 3A). As the functional capacity of T cells might vary from individual to individual, the data were also expressed as the percentage of the ConA response per individual (see FIG. 3B).

U87-MG cells = experiment: In vitro cytotoxicity of CD3+ T cells from immunized mice against U87 cells; type: cell-based; settings: CD3+ T cells of mice immunized with the peptide; 72 hours co-culture; DAPI/annexin V cytometry
Experimental: Briefly, CD8 T cells from mice immunized with IL13RA2-H or […] were used. These cells were obtained after sorting of splenocyte from immunized mice and were placed on top of U87 cells (tumor cells expressing IL13RA2).
In more detail, CD3^+ T cells were purified from splenocytes of HHD mice immunized with IL13RA2-H ([…], SEQ ID NO: 1) or IL13RA2-B ([…], SEQ ID NO: 18). To this end, B6 β2 m^ko HHD/DR3 mice were injected s.c. at tail base with 100 μL of an oil-based emulsion containing vaccination peptide plus helper peptide plus CFA (complete Freund's adjuvant), at day 0 and day 14 as described in Example 5. On d21, i.e. seven days after the boost injection, the animals were euthanized and the spleen was harvested. Splenocytes were prepared by mechanical disruption of the organ. CD3+ purification was performed using the mouse total T cells isolation kit from Miltenyi biotec using the recommended procedure. […]
U87-MG cells were seeded at 6×10^5 cells/well in flat-bottomed 24-well culture plates and incubated for 24 h at 37° C. in DMEM (Dulbecco's Modified Eagle Medium) containing 10% of FCS (fetal calf serum) and antibiotics. […] 72 hours after co-culture of U87-MG cells and CD3+ T cells, all cells from the wells were harvested and specific U87-MG cell death was evaluated after immunostaining of CD45 negative cells with DAPI and fluorescent annexin V followed by cytometry analysis.

[2] = system: unresectable or metastatic melanoma; settings: patients; cited from earlier work
[3] = ex vivo re-stimulation with IL13RA2-B pAg 10 μM
[4] = ex vivo re-stimulation with IL13RA2-H pAg 10 μM

Substance	binding to HLA-A*0201 (HLA-A*0201)	concentration inducing 20% of expression of the HLA-A*0201 (HLA-A*0201)	Mean fluorescence intensity (HLA-A*0201; peptide at 0.1 μM)	Mean fluorescence intensity (HLA-A*0201; peptide at 1 μM)	Mean fluorescence intensity (HLA-A*0201; peptide at 10 μM)	Mean fluorescence intensity (HLA-A*0201; peptide at 100 μM)	percentage of ConA-induced response (mean+/−SEM) (β/A2/DR3 mice; [3])	percentage of ConA-induced response (mean+/−SEM) (β/A2/DR3 mice; [4])	U87 cell lysis (U87-MG cells)	binding affinity to HLA-A*0201 compared among peptides (HLA-A*0201)	further results
Nivolumab: check point inhibitor targeting PD1	–	–	–	–	–	–	–	–	–	–	three-year survival rate [1]: 44%; three-year survival rate (NSCLC): 18%
1A9V: SEQ ID NO: 1 with tryptophan at position 1 substituted by alanine and isoleucine at position 9 by valine (Eguchi et al., 2006) (ALPFGFILV; listed as Homo sapiens)	–	–	–	–	–	–	–	–	–	lowest affinity of the peptides tested	–
Ipilumumab: anti-CTLA-4 antibody	–	–	–	–	–	–	–	–	–	–	three-year survival rate [2]: around 20%

The next lines start with results.

binding to HLA-A*0201 (HLA-A*0201)	concentration inducing 20% of expression of the HLA-A*0201 (HLA-A*0201)	Mean fluorescence intensity (HLA-A*0201; peptide at 0.1 μM)	Mean fluorescence intensity (HLA-A*0201; peptide at 1 μM)	Mean fluorescence intensity (HLA-A*0201; peptide at 10 μM)	Mean fluorescence intensity (HLA-A*0201; peptide at 100 μM)	Substance	percentage of ConA-induced response (mean+/−SEM) (β/A2/DR3 mice; [3])	percentage of ConA-induced response (mean+/−SEM) (β/A2/DR3 mice; [4])	U87 cell lysis (U87-MG cells)	binding affinity to HLA-A*0201 compared among peptides (HLA-A*0201)	further results
does not bind	100 µM	7.46	9.41	11.61	18.64	WLPFGFILI (listed as Homo sapiens) [SEQ ID NO: 1]	2.0%+/−0.8	1.1%+/−0.8	not	–	–
binds strongly	4.4 µM	9.9	12.18	40.77	112.05	FLPFGFILV (sequence variant) [SEQ ID NO: 18]	56.3%+/−18.1	32.3%+/−11.8	U87 cell lysis was observed	considerably higher binding affinity to HLA-A*0201 than all other peptides tested	In vitro binding affinity (HLA-A*0201; relative affinity = concentration inducing 20% of HLA-A*0201 expression / that of reference peptide HIV pol 589-597, lower = stronger): 0.49; T cell responses in the ELISPOT-IFNγ assay (β/A2/DR3 mice; compared to IL13RA2-H-vaccinated animals): improved T cell responses
